Data on 1 molecule can be found in paper doi:10.1101/2023.01.12.523719 (2023).

The target of this assay is T1, Myc-tagged NLRP6 (ΔPYD).
T1 chain: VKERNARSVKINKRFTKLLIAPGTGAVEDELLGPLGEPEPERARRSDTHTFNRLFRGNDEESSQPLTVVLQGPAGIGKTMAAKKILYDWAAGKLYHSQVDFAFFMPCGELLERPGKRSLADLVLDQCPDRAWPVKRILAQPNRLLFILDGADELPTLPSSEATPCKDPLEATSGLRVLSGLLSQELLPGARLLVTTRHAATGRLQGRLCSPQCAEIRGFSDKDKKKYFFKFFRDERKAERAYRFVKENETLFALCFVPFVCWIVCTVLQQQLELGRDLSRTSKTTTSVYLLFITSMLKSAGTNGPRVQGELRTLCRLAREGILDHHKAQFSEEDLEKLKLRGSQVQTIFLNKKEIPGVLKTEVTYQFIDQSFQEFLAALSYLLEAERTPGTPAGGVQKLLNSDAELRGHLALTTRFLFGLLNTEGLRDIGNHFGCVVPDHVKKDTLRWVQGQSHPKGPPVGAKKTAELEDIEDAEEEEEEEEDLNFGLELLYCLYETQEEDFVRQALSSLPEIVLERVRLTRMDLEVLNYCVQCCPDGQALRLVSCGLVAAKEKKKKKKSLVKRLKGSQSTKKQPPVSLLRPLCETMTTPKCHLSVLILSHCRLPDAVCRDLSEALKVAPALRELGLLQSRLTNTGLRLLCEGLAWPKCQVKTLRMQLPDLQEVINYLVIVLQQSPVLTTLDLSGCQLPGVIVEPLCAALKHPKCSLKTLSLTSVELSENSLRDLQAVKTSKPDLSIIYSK

B1: FLAG-tagged iTie (natural protein)
chain: MGVFQILMKNKELIPLAFFISVAATGATSFALYALKKTDVVIDRKRNPEPWEMVDPTQPQKLITINQQWKPVEELQKVRRATR
Usually Kd stands for the constant that tells how readily two partners part at equilibrium. The low end stands for tighter binding, the high end for weaker binding. Turning to B1, the Kd stood at 0.088 µM.
